Reference: patent publication US20080292632A1 (US Dept. of Health and Human Services, published 2008)

Columns and labels:
Assay in all cases: FACS on transfected 293T (summary with IRTA-Fc ELISA, FIG. 2A and B)
[1] = molecular target: T1, IRTA1, full-length, on transfected 293T cells (human, UniProt Q96PJ5 20-515)
T1 sequence: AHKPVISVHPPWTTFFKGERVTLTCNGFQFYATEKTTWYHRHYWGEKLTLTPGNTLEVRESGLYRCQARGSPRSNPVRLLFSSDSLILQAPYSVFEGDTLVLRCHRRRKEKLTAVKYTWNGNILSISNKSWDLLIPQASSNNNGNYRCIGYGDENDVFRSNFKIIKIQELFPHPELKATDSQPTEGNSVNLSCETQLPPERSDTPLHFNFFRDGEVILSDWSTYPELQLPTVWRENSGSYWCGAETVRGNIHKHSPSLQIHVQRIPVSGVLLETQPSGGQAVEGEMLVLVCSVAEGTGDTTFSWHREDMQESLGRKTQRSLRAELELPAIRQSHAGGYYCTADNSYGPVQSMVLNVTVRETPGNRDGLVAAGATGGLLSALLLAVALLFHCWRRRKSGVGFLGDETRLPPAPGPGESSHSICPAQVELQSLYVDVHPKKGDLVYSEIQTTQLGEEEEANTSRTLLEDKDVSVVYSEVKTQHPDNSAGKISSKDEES
Protocol: (§1) FIGS. 2A-B are a bar graph and a set of plots showing the cross-reactivity of the anti-IRTA2 MAbs to other IRTA family members. FIG. 2A is a bar graph of the results from an ELISA of anti-IRTA2 MAbs to various Fc-fusion proteins. Each Fc-fusion protein indicated on the top of the column was captured on ELISA plates using secondary antibody (goat anti-human IgG). After washing, 100 ng/50 μl/well of MAbs were added, followed by HRP-labeled goat anti-mouse IgG and TMBZ substrate. The signals in ELISA were normalized for the amounts of each Fc-fusion protein on the plates using HRP-goat anti-human Fc. The controls are MAbs 9E10 (anti-myc tag, IgG1), BerH2 (anti-CD30, IgG1), T408 (anti-CD30, IgG2a), T420 (anti-CD30, IgG2b) and HRP-goat anti-human Fc (1/2400 dilution). […] Two days after transfection, the cells were harvested and incubated with 200 ng/100 μl of each MAb, followed by PE-conjugated goat anti-mouse IgG F(ab′)2. […] In the positive control panels, the MAbs cross-reactive to other IRTAs were used. They are F26 (anti-IRTA1 and anti-IRTA2, IgG2b), F109 (anti-IRTA3, IgG2b), F47 (anti-IRTA4, IgG2a), and F69 (anti-IRTA5, IgG2a). BerH2 (anti-CD30, IgG1) was also used. “+” indicates more than 1.5-fold than that of the control; “++” indicates more than 10-fold mean fluorescence intensity than that of the negative control.

[2] = molecular target: T2, IRTA4, full-length, on transfected 293T cells (human, UniProt Q96LA5 20-508)
T2 sequence: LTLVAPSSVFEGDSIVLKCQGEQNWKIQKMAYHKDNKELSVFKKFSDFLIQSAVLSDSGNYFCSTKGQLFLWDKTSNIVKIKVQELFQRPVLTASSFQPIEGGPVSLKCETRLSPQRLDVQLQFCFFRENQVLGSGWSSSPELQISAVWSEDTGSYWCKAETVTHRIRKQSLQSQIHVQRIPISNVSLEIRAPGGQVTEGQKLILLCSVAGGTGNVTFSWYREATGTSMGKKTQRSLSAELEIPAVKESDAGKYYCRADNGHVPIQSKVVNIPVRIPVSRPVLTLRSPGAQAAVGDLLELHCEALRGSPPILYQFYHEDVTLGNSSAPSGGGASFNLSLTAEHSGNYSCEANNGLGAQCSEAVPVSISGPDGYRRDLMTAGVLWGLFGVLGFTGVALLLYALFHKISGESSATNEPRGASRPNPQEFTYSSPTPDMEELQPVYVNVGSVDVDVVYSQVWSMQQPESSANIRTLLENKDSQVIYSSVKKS
Protocol: as §1

[3] = molecular target: T3, IRTA5, full-length, on transfected 293T cells (human, UniProt Q96LA6 17-429)
T3 sequence: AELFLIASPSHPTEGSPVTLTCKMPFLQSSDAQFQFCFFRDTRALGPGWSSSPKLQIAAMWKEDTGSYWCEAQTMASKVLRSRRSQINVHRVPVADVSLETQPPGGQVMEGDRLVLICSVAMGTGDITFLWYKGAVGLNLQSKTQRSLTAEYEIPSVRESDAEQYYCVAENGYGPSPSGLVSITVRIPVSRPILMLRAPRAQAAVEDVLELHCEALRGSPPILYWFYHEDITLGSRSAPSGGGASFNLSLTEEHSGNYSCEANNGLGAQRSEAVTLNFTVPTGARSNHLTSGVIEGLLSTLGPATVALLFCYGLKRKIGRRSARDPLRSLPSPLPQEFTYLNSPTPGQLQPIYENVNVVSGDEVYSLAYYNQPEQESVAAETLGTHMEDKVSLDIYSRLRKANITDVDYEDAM
Protocol: as §1

[4] = molecular target: T4, IRTA3, full-length, on transfected 293T cells (human, UniProt Q96P31 18-734)
T4 sequence: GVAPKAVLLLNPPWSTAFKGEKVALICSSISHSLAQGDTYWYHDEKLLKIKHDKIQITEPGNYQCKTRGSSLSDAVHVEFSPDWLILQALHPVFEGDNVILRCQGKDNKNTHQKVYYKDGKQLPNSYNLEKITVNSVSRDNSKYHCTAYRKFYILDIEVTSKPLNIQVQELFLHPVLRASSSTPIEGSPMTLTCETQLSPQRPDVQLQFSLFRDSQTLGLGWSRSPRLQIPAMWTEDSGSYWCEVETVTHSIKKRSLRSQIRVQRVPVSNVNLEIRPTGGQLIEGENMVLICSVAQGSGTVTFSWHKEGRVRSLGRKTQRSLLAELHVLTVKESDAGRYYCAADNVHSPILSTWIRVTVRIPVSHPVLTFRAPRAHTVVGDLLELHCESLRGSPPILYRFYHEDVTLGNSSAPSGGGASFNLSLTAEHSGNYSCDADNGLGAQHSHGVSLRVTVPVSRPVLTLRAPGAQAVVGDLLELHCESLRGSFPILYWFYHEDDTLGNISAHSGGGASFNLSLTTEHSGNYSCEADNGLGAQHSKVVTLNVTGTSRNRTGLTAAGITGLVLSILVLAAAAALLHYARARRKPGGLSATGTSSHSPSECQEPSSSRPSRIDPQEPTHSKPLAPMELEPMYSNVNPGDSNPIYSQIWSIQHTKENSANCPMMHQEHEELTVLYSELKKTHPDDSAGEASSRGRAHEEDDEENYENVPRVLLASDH
Protocol: as §1

Measured: binding result

B1: F25 (antibody, IgG2a, V domains shown)
VH: EVQLQQSGPELVKPGTSVKMSCKASGYSFTGYFMNWMMQNHGKSLEWIGRINLYNGDTFYNQKFKDKATLTVDKSSNTVHMEFRSLASEDSAVYYCASSLYYFDYWGQGTTFTVSS
VL: DIVMTQSHKFMSTSVGDRVNITCKASQDVGTNVAWYQQKPGQSPKLLIYWASTRQTGVPDRFTGSGSGTDFTLTISNVQSEDLSDYFCQQYSSYPLTFGAGTKLELKR
notes: mouse hybridoma MAb, IgG2a, kappa; also called MAb F25; biotin-MAb F25
no binding: [1] | [2] | [3] | [4]
